Numbering of substitutions follows the chain as printed. Numbers in names are those of the source.
T1: LINGO-Fc (human, UniProt Q96FE5 40-538, limits assumed)
T1 construct: not shown: Fc part
T1 sequence: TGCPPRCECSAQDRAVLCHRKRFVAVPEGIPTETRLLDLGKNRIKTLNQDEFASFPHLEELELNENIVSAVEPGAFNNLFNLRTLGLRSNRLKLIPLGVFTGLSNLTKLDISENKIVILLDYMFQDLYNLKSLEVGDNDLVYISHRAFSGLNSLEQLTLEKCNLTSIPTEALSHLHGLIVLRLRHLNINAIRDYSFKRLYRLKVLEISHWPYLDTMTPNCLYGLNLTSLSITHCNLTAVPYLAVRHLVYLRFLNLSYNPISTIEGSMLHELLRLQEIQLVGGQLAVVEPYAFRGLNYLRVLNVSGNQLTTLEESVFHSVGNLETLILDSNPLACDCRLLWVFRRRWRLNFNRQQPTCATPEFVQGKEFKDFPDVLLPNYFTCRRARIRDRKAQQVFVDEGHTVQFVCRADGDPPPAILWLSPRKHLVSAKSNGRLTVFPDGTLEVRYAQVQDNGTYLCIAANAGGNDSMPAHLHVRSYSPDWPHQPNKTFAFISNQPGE

B1: WT Li33 (Table 11) (antibody, V domains shown)
VH: EVQLLESGGGLVQPGGSLRLSCAASGFTFSIYPMFWVRQAPGKGLEWVSWIGPSGGITKYADSVKGRFTISRDNSKNTLYLQMNSLRAEDTATYYCAREGHNDWYFDLWGRGTLVTVSS
VL: DIQMTQSPGTLSLSPGERATLSCRASQSVSSYLAWYQQKPGQAPRLLIYDASNRATGIPARFSGSGSGTEFTLTISSLQSEDFAVYYCQQYDKWPLTFGGGTKVEIKR
B2: Li33 variant P53W (SEQ ID NO:154) (antibody, V domains shown)
VH: B1 VH with P53W
VL: B1 VL
notes: unchanged chain from WT Li33
B3: Li33 variant I57G (SEQ ID NO:159) (antibody, V domains shown)
VH: B1 VH with I57G
VL: B1 VL
notes: unchanged chain from WT Li33
B4: Li33 variant W50M (SEQ ID NO:150) (antibody, V domains shown)
VH: B1 VH with W50M
VL: B1 VL
notes: unchanged chain from WT Li33
B5: Li33 variant W94G (SEQ ID NO:169) (antibody, V domains shown)
VH: B1 VH
VL: B1 VL with W94G
notes: unchanged chain from WT Li33
B6: Li33 variant W50L (SEQ ID NO:149) (antibody, V domains shown)
VH: B1 VH with W50L
VL: B1 VL
notes: unchanged chain from WT Li33
B7: Li33 variant P53L (SEQ ID NO:151) (antibody, V domains shown)
VH: B1 VH with P53L
VL: B1 VL
notes: unchanged chain from WT Li33
B8: Li33 variant P53S (SEQ ID NO:152) (antibody, V domains shown)
VH: B1 VH with P53S
VL: B1 VL
notes: unchanged chain from WT Li33
B9: Li33 variant W50H (SEQ ID NO:147) (antibody, V domains shown)
VH: B1 VH with W50H
VL: B1 VL
notes: unchanged chain from WT Li33
B10: Li33 variant P53G (SEQ ID NO:180) (antibody, V domains shown)
VH: B1 VH with P53G
VL: B1 VL
notes: unchanged chain from WT Li33
B11: Li33 variant W94D (SEQ ID NO:166) (antibody, V domains shown)
VH: B1 VH
VL: B1 VL with W94D
notes: unchanged chain from WT Li33
B12: Li33 variant I57N (SEQ ID NO:161) (antibody, V domains shown)
VH: B1 VH with I57N
VL: B1 VL
notes: unchanged chain from WT Li33
B13: Li33 variant I57V (SEQ ID NO:185) (antibody, V domains shown)
VH: B1 VH with I57V
VL: B1 VL
notes: unchanged chain from WT Li33
B14: Li33 variant I57H (SEQ ID NO:162) (antibody, V domains shown)
VH: B1 VH with I57H
VL: B1 VL
notes: unchanged chain from WT Li33
B15: Li33 variant I57W (SEQ ID NO:181) (antibody, V domains shown)
VH: B1 VH with I57W
VL: B1 VL
notes: unchanged chain from WT Li33
B16: Li33 variant I57L (SEQ ID NO:163) (antibody, V domains shown)
VH: B1 VH with I57L
VL: B1 VL
notes: unchanged chain from WT Li33
B17: Li33 variant W94A (SEQ ID NO:165) (antibody, V domains shown)
VH: B1 VH
VL: B1 VL with W94A
notes: unchanged chain from WT Li33
B18: Li33 variant P53T (SEQ ID NO:153) (antibody, V domains shown)
VH: B1 VH with P53T
VL: B1 VL
notes: unchanged chain from WT Li33
B19: Li33 variant W50I (SEQ ID NO:174) (antibody, V domains shown)
VH: B1 VH with W50I
VL: B1 VL
notes: unchanged chain from WT Li33
B20: Li33 variant I57Y (SEQ ID NO:182) (antibody, V domains shown)
VH: B1 VH with I57Y
VL: B1 VL
notes: unchanged chain from WT Li33
B21: Li33 variant W50F (SEQ ID NO:148) (antibody, V domains shown)
VH: B1 VH with W50F
VL: B1 VL
notes: unchanged chain from WT Li33
B22: Li33 variant I57M (SEQ ID NO:160) (antibody, V domains shown)
VH: B1 VH with I57M
VL: B1 VL
notes: unchanged chain from WT Li33
B23: Li33 variant I57P (SEQ ID NO:184) (antibody, V domains shown)
VH: B1 VH with I57P
VL: B1 VL
notes: unchanged chain from WT Li33
B24: Li33 variant W50D (SEQ ID NO:175) (antibody, V domains shown)
VH: B1 VH with W50D
VL: B1 VL
notes: unchanged chain from WT Li33
B25: Li33 variant I57T (SEQ ID NO:186) (antibody, V domains shown)
VH: B1 VH with I57T
VL: B1 VL
notes: unchanged chain from WT Li33
B26: Li33 variant I57S (SEQ ID NO:183) (antibody, V domains shown)
VH: B1 VH with I57S
VL: B1 VL
notes: unchanged chain from WT Li33
B27: Li33 variant I57F (SEQ ID NO:164) (antibody, V domains shown)
VH: B1 VH with I57F
VL: B1 VL
notes: unchanged chain from WT Li33

What was measured:
[1] = molecular target: T1, LINGO-Fc; assay: direct ELISA on LINGO-Fc; half-maximal concentration relative to Li33;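 further: direct binding ELISA on plates coated with LINGO-Fc, concentration giving half of saturating binding, expressed as a ratio to the same value for the comparator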
Procedure: (§1) A direct binding ELISA assay was performed using LINGO-Fc coated plates. The half maximal concentration that gave 50% saturation of binding was measured and is reported as a ratio of the same measurement for Li33. In addition, the OD450 for maximal saturation value was measured and is reported as a ratio of the same measurement for Li33.

[2] = molecular target: T1, LINGO-Fc; assay: direct ELISA on LINGO-Fc; OD450 at saturation relative to Li33;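 further: binding to plate-coated LINGO-Fc read by OD450, with the value at maximal saturation divided by the corresponding Li33 value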
Procedure: as §1

Binder	ELISA Ratio [1] [ratio]	Plateau Ratio [2] [ratio]
B1	1	0.91
B2	3.9	0.55
B3	2.3	0.91
B4	2	0.93
B5	0.9	1.03
B6	1.8	1
B7	2.2	1.13
B8	2.5	1.43
B9	1.3	0.87
B10	3.1	0.83
B11	1.5	0.87
B12	2.9	1.1
B13	1.4	1.13
B14	3.2	1.07
B15	0	
B16	0.7	1
B17	1.6	0.91
B18	2.1	0.85
B19	93.5	12.4
B20	0	
B21	1.2	0.86
B22	3.8	1.09
B23	0.6	1.27
B24	4	0.71
B25	1.1	1.01
B26	0.6	0.96
B27	2	0.83

Reference: patent US20130323786A1 (Biogen, published 2013)
